# From the nanobody polyreactivity screen of Harvey et al. (2022)
# Test: yeast display, Sf9 membrane polyspecificity reagent, FACS + sequencing; frameworks hold sequencing errors
# Summary of the method: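 Sorting gates, low and high (top ~1%), were placed on anti-HA fluorescence to track expression and on streptavidin fluorescence to track reagent binding. A clone's polyreactivity label is taken from the gate it came out of. The reagent was 10% biotinylated, detergent-solubilized Sf9 membrane, applied for 1 hour at 4 °C to galactose-induced yeast display cells.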
row,Sequence,polyreactivity (PSR sort gate)
1,QVQLVESAVGLVQAGGSLRLSCAASGGIIAYNAMGWYRQAPGKERELVAAISSSGGRTYYADSVKGRFTISRDNAKNTVYLQMNSLKPEDTAVYYCAADITFRYYYWGQGTQVTVSS,high polyreactivity
2,QVQLVESCGCLVQAGGSLRLSCAAYGITFGRNTMVWDRQAPGKERELVAAIDSGGNTYAVSVKGRFTISRDNAKNTVYLQMISLKPEDTAVYYCAVDGGEFSSYGYWGQGTQVTVSS,low polyreactivity
3,QVQLVESCGGIVQAGVSLRLSCAASGSIFGIYAMGWYRQAPGKERELVAAIDSSGTSTYYADSVKGRFTISRDNEKNTVYLQMNSLKPEDTAVNSSAAYHRISKNNYWGQGTEVTVSS,low polyreactivity
4,QVQLVESCGGLDQAGGSLRLSCAASGSMFGYAMGWYRQAPGKERELVASTTYADSVKGRFTISRDNAKNTVYLQMNSLKPEDTAVYDCAADDWYTVEMEYWGQGTLVTVSS,low polyreactivity
5,QVQLVESCGGLVHAGCSLRLSCAASGSTFTFYAMGWYRQAPGKERVLVATISWSTGTTYYADSVKGRFTISRDSAKNTVYLEMNSMKPEDTAVYYCADAWSYRFDYWGQGTQVTVSS,low polyreactivity
6,QVQLVESCGGLVHAGGSLRLSCAASGRSFYRYAMGWYRKAPGKERELVAAISSGGSTYYADSVKGRFTISRDNANNTDYLQMNSLKPEDTAVYYCNADYGRRIHMDYWGQGTQVTVSS,low polyreactivity
7,QVQLVESCGGLVQAGASLRLSCAASGSTFKYYTMGWYIQSPGKERELVAAISFSGARTYYADSVKGRFTISRDNAKNNVYLQMNSLKPEDTAVYYCAKRATWYTVPREGYWGQGTLVTVSS,high polyreactivity
8,QVQLVESCGGLVQAGGSLRLICAASGRTFRSYTMGWYRQAPGKERELVAAISYNCGSTYYADSVKGRFTISRDNAKNTVYLQMNSLKPEDTPVYYCAVYTIYGFYYWGQGTQVSVSS,high polyreactivity
9,QVQLVESCGGLVQAGGSLRLICDDSGNTFNRYAMGWYRQAPGKERELVADITSGGRTYYAYSVKGRFTISRDNAKNTVYLQMNSVKPVDTAVYYCAGEWWDLGNFYWSYRYDYWGQCTQVTVSS,high polyreactivity
10,QVQLVESCGGLVQAGGSLRLRCAASRSIFDSYAMGWYRQAPGKERELVASISYRGGSTYYADSVKGRFTISRDIAKNTVYLQMNSLKPEDTAVYYCAATPGYHYRSWRYYYWGQGNQVTVSS,high polyreactivity
11,QVQLVESCGGLVQAGGSLRLSCAASGFTFYYYVMGWYRQAPGQERELVAAISRSGGNTYYADSVKGRFTISRDNAKNTVYLQMNRLKPEDTAVYYCNAVQYYPVYYWGQGTQVTVSS,high polyreactivity
12,QVQLVESCGGLVQAGGSLRLSCAASGITFGSYAMGWYRQAPGKERELVAAITTGTSTNYADSVKGRFTISRDNAKNTVYLQMNSLKPEDTAVYYCNAEKYNFIYAYEYWGQGTQVTVSS,low polyreactivity
13,QVQLVESCGGLVQAGGSLRLSCAASGLIIRWYAMGWYRQAPGKERELVAAITRAGSTYYADSVKWRFTISRDNAKNTVYLQMNSLNPEDTAVYYCAADTNWSPGYIMYYRSDYWGQGTQVTVSS,low polyreactivity
14,QVQLVESCGGLVQAGGSLRLSCAASGLTLGDNAMGLYRQAPGKERELVAAITSGSSTDYADSVKGRFTISRDNAKNTVYLQMNSLKPEDTAVYYCAKRIYRYQYRPENYWGQGTQVTVSS,low polyreactivity
15,QVQLVESCGGLVQAGGSLRLSCAASGRIFLVYAMGWYRQAPGKERELVAAISWSTGSTYYADSVKGRFTISRDNAKNTVYLQMNSLKPEDTAVYYCAAEPELDEFEHDYWGQGTQVTVSS,low polyreactivity
16,QVQLVESCGGLVQAGGSLRLSCAASGRIIRKYDMGWYRQAPGKERELVAAISGTGITYYADSVKGRFTISRDNAKNTVYLQMNSLKPEDTAVYYCARGSKPRAWSWAYPSATSIYDYLGQGTQVTVSS,low polyreactivity
17,QVQLVESCGGLVQAGGSLRLSCAASGRTFNSYAIGWYRNAPGKERELVAAISWIGGSTYYADSVKGRFTISRDNAKNTVYLQMNSLKPEDTAVYYCAADSYRFYSGYYYWGQGTQVTVSS,low polyreactivity
18,QVQLVESCGGLVQAGGSLRLSCAASGSIFGDYVMGWYRQAPGKERELVAAINRGGSTYYADSVKGRFTISRDNAKNTVYLQMNSLKPEDTAVYYCAAGYPSWYYGYPYDSWGQGTQVTVSS,low polyreactivity
19,QVQLVESCGGLVQAGGSLRLSCAASGSIFSGYAMGWYRQAPWKERELVAAITWRAASTYYADSVTGRFTISRDNAMNTVYLQMNSLKPEDTAVYYCAKEGWPKPAFYYCGQGTQVTVSS,low polyreactivity
20,QVQLVESCGGLVQAGGSLRLSCAASGSIFSRNTMGWYRQAPCKERELVAGISSSGSRTYYADSVKGRFTISRDNSKNTVYLQMNSLKPEYTAVYYCAAEHQRSRGRRYYIGYDYWGQGTQVTVSS,low polyreactivity
21,QVQLVESCGGLVQAGGSLRLSCAASGSTFSLYGMGWYRQAPAKERELVATITYSGGRTYYADSVKGRFTISLDNAKNTVYLQLNSLKPEDTAVYYCAARLAPLYRTYYYWGQGTQVTVSS,low polyreactivity

row,Sequence,polyreactivity (PSR sort gate)
1,QVQLVESCGGLVQAGGSLRLSCAASGSTFVYNSMGWYRQAPGKEREMVDAITWRGSTYYADSVKGRFTISRDNAKNTVYLQMNSLKPEDTAVYYCAARFSNLPEGVTYYYWGQGTQVTVSS,high polyreactivity
2,QVQLVESCGGLVQAGGSLRLSCAASGYTFSFNAMGWYRQAPGKESELVADINLSGGYTYYADSVKGRFTISRDNAKNTVYLQINSLKPEDTAVYYCAADLYDYWTEGYAFLFEYWGQGTQVTVSS,low polyreactivity
3,QVQLVESCGGLVQARGSLRLSCAACGRIFIRYALGWYSQAPGTERELVAAITRGGSTYYADSVKGRFTISRDNAKITVFLQMNSVKPEDTAVYYCAGRVGYPYYYWGQGTEVTVSS,high polyreactivity
4,QVQLVESCLGLVQAGGSLRLSFADSGIIIMFYSMGWYRQATGKERELLAAISASGGRTYYADSVKGRFTISRDNAKNTVYLQMNSLKPEDTAVYYCARLLPTPGKPILDYWGQGTQVTVSS,low polyreactivity
5,QVQLVESDGGLVQAGGSHPLSSAASGRIIYRYTMGWYRQAPGKERELVAAIRYRTSSTYYADSVKGRFTISRDNAKNTVYLQMNSLKPEDTAVYYCAAYDGLRPHRMDYWGQGTQVTVSS,low polyreactivity
6,QVQLVESEGGLVQAGGSLRISCAASGRNFRTYDMGWYRQAPGKERELVAAISEEGGYTYYADSVKGRFTISRDNAKNTVYLQMNSLKPEDTAVYYCAKDRPGPLRWWFLYGYWGQGTQVTVSS,low polyreactivity
7,QVQLVESGAALVQAGGSLRISCAASGSTLDTNAMGRYRPAPGKERELVAAITFSGGTTYYADSVKGRFTISRDNAKNTVYLQMNSLKPEDTAVYYCAAEIWLEYVGYDYWGQGTQVTVSS,high polyreactivity
8,QVQLVESGAGIVQAGGSLRVSSAASGSIFHSYAMGWYRQEPGKERELVAGITYRTGSTYYADSVKGRVTNSRDNAKNTVYFQMNSLKPEDTAVYYCAAGYYSRYFEAFEYYYWGLGTQVTVSS,high polyreactivity
9,QVQLVESGAGLGQAGGSLRLSCAASGYTFPSNAMGWYRQAPGKERELVAAISSGGRTNYADSVKGRFTISRDNAKNTVYLQMNSLKPEVTAVYYCNADGGPGYPRAYDYWGPGTQVTVSS,low polyreactivity
10,QVQLVESGAGLLHAGRSLRLSCPASGRIFRGNAMGCYRQAPGKERELVASISTSGVRTFYADSVKGRFTISRDNAKNTFYLQMNSLKHEDTAVYYCNKRDRYRLYGYNYCGQGTQVTVSS,high polyreactivity
11,QVQLVESGAGLVHAGGSLRLSCAASGLIYVNAMGWYRQAPGKERDFVAAITYSTGSTYYADSVKGRYTISRDNAKNTVYLQMNSLKPEDSAVYYCATDEHSSGRTPYDYWVQGTQVTVSS,low polyreactivity
12,QVQLVESGAGLVKAGCSLRISCAASGSSFVTYDMGWYRQAPGKERELVAGISGSGSTNYADSVKGRFTISRDNAKNTVYLQMNSLKPEDTAVYYSAAEYEYLWSQYLTDYGYDYWGQGTQVTVSS,low polyreactivity
13,QVQLVESGAGLVQAAASLRLSCAASGRTFIYYSMGWYRQAPGKEREFVAIISWNGTSTNYADSVKGRFTISRDNAKNTVYLQMNSLKPEDTAVYYCAASFWTDYYRYDYWGQGTQVTVSS,low polyreactivity
14,QVQLVESGAGLVQAGGILRLSCAASGLTFSRYTMGWSRQAPGKERELVAAITSSGGSTYYADSVKGRFTISRDNAKNTVSLEMNSLKPEDTAVNYCAARYPGTRGDGYWGLGTQVTVSS,high polyreactivity
15,QVQLVESGAGLVQAGGRLRLSCAASGSIFWRYAMGWSIQAPGKERELVAAINYSTTRTYYADSVKGRFTISRDNAKNTVYLQMNSLKPVDTAVYYCAADSRVDEGEYWGQGTQVTVSS,high polyreactivity
16,QVQLVESGAGLVQAGGRLRLSCAASGSTFGYYAMGLYTQAPGTERELVAVITTRVGSTYYADSVKGRFTISRDNAKNTVYLQMNSLKPEDTAVYYCNASGRTRSYSGSFSKHYYWGQGTKVTVSS,high polyreactivity
17,QVQLVESGAGLVQAGGSLLLSCAASGYIFDVYDMGWYRQAPGKERELVAAITDYADSVKGRFTISRDNAKNTVYLQMNSQKPEDTAVYYCAADTDVLKGTTGFEYWGQGTQVTVSS,low polyreactivity
18,QVQLVESGAGLVQAGGSLPLSCAASGFTFTIYAMGWYRQAPGKERELVATISGRAGRTYYADSVKGRFTISRDNAKNTVYLQMNSMKPEDTAGYYCNAGQWRYTGLYYYWGQGTQVTVSS,high polyreactivity
19,QVQLVESGAGLVQAGGSLRFSCAASGSIFDHYVMGWYRQAPGKEREFVAAIPSGDRTNYADSVKGRFTISRDNANNTVYLQMNSLKPEDTAVYYCNADYQYYFYYTTCYYDYDYWGQGTPVTVSS,low polyreactivity
20,QVQLVESGAGLVQAGGSLRLICAASGSTFVKNVMGCYRQAPGKERELVAGITRGGSTYYADSVKGRFTISRDHAKNSVYLQMNSLYPDDTAVYYWAKRYAWELDYWGQGSQVTVSS,high polyreactivity
